The target of assay [1] is T1, prostate-specific membrane antigen (PSMA) (human, UniProt Q04609 1-750). In words: FACS binding; C4-2 cells; apparent EC50. A general note: A flow cytometer gives signals particle by particle.
For assay [2], the target named is T1, prostate-specific membrane antigen …. In words: FACS binding; LNCaP cells.

The EC50 is the midpoint of the concentration-response curve.

T1 sequence (Q04609 whole entry): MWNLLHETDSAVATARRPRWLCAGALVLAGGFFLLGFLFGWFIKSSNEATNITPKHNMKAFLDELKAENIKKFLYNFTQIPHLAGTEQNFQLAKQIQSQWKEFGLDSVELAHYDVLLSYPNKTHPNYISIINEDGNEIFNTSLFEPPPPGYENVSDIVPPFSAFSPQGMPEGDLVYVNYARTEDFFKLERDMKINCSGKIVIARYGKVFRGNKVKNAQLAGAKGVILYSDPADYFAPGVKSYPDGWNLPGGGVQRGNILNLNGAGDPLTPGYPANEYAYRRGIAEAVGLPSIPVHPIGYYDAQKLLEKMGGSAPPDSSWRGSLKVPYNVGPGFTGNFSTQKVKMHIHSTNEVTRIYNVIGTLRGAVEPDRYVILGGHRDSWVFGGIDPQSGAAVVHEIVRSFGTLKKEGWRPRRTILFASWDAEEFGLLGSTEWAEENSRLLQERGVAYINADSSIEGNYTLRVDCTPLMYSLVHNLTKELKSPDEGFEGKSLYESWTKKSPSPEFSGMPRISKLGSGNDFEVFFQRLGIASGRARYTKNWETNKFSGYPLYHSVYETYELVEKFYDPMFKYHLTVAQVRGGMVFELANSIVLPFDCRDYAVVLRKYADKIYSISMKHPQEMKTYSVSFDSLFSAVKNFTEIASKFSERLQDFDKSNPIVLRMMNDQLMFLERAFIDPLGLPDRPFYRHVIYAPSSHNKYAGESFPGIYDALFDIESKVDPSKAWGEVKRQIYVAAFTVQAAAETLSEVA

B1: TSC188 humanized SMIP (107-1A4 VL-VH#1 scFv-Fc) (Fc fusion)
chain: DIQMTQSPSAMSASVGDRVTITCRASKSISKYLAWFQQKPGKVPKLRIHSGSTLQSGVPSRFSGSGSGTEFTLTISSLQPEDFATYYCQQHIEYPWTFGQGTKVEIKRGGGGSGGGGSGGGGSEVQLVQSGAEVKKPGATVKISCKASGYTFTDYYMHWVQQAPGKGLEWMGYFNPYNDYTRYAEKFQGRVTITADTSTDTAYMELSSLRSEDTAVYYCARSDGYYDAMDYWGQGTTVTVSSSEPKSSDKTHTCPPCPAPEAAGAPSVFLFPPKPKDTLMISRTPEVTCVVVDVSHEDPEVKFNWYVDGVEVHNAKTKPREEQYNSTYRVVSVLTVLHQDWLNGKAYACAVSNKALPAPIEKTISKAKGQPREPQVYTLPPSRDELTKNQVSLTCLVKGFYPSDIAVEWESNGQPENNYKTTPPVLDSDGSFFLYSKLTVDKSRWQQGNVFSCSVMHEALHNHYTQKSLSLSPGK
With B1, the EC50 in assay [1] amounted to 3.2 nM.

B2: TSC092 chimeric SMIP (murine 107-1A4 VH-VL scFv-human Fc) (Fc fusion)
chain: EIQLQQSGPELVKPGASVKMSCKASGYTFTDYYMHWVKQNNGESLEWIGYFNPYNDYTRYNQNFNGKATLTVDKSSSTAYMQLNSLTSEDSAFYYCARSDGYYDAMDYWGQGTSVTVSSGGGGSGGGGSSGGGGSDVQITQSPSYLAASPGETITINCRASKSISKYLAWYQEKPGKANKLLIHSGSTLQSGIPSRFSGSGSGTDFTLTISSLEPEDFAMYYCQQHIEYPWTFGGGTKLEIKRASSEPKSSDKTHTCPPCPAPEAAGAPSVFLFPPKPKDTLMISRTPEVTCVVVDVSHEDPEVKFNWYVDGVEVHNAKTKPREEQYNSTYRVVSVLTVLHQDWLNGKAYACAVSNKALPAPIEKTISKAKGQPREPQVYTLPPSRDELTKNQVSLTCLVKGFYPSDIAVEWESNGQPENNYKTTPPVLDSDGSFFLYSKLTVDKSRWQQGNVFSCSVMHEALHNHYTQKSLSLSPGK
Turning to B2, the midpoint of the response in assay [2], the EC50, lay at 4 nM.

B3: 107-1A4 murine monoclonal antibody (antibody, V domains shown)
VH: EIQLQQSGPELVKPGASVKMSCKASGYTFTDYYMHWVKQNNGESLEWIGYFNPYNDYTRYNQNFNGKATLTVDKSSSTAYMQLNSLTSEDSAFYYCARSDGYYDAMDYWGQGTSVTVSS
VL: DVQITQSPSYLAASPGETITINCRASKSISKYLAWYQEKPGKANKLLIHSGSTLQSGIPSRFSGSGSGTDFTLTISSLEPEDFAMYYCQQHIEYPWTFGGGTKLEIKR
For B3, the EC50 in assay [2] stood at 5.4 nM.

B4: TSC085 chimeric SMIP (murine 107-1A4 VL-VH scFv-human Fc) (Fc fusion)
chain: DVQITQSPSYLAASPGETITINCRASKSISKYLAWYQEKPGKANKLLIHSGSTLQSGIPSRFSGSGSGTDFTLTISSLEPEDFAMYYCQQHIEYPWTFGGGTKLEIKRAGGGGSGGGGSSGGGGSEIQLQQSGPELVKPGASVKMSCKASGYTFTDYYMHWVKQNNGESLEWIGYFNPYNDYTRYNQNFNGKATLTVDKSSSTAYMQLNSLTSEDSAFYYCARSDGYYDAMDYWGQGTSVTVSSSEPKSSDKTHTCPPCPAPEAAGAPSVFLFPPKPKDTLMISRTPEVTCVVVDVSHEDPEVKFNWYVDGVEVHNAKTKPREEQYNSTYRVVSVLTVLHQDWLNGKAYACAVSNKALPAPIEKTISKAKGQPREPQVYTLPPSRDELTKNQVSLTCLVKGFYPSDIAVEWESNGQPENNYKTTPPVLDSDGSFFLYSKLTVDKSRWQQGNVFSCSVMHEALHNHYTQKSLSLSPGK
B4 yielded an EC50 in assay [2] of 4.9 nM.

B5: TSC189 humanized SMIP (107-1A4 VL-VH#2 scFv-Fc) (Fc fusion)
chain: DIQMTQSPSAMSASVGDRVTITCRASKSISKYLAWFQQKPGKVPKLRIHSGSTLQSGVPSRFSGSGSGTEFTLTISSLQPEDFATYYCQQHIEYPWTFGQGTKVEIKRGGGGSGGGGSGGGGSQVQLVQSGAEVKKPGASVKVSCKASGYTFTDYYMHWVRQAPGQGLEWMGYFNPYNDYTRYAQKFQGRVTMTRDTSISTAYMELSSLRSDDTAVYYCARSDGYYDAMDYWGQGTTVTVSSSEPKSSDKTHTCPPCPAPEAAGAPSVFLFPPKPKDTLMISRTPEVTCVVVDVSHEDPEVKFNWYVDGVEVHNAKTKPREEQYNSTYRVVSVLTVLHQDWLNGKAYACAVSNKALPAPIEKTISKAKGQPREPQVYTLPPSRDELTKNQVSLTCLVKGFYPSDIAVEWESNGQPENNYKTTPPVLDSDGSFFLYSKLTVDKSRWQQGNVFSCSVMHEALHNHYTQKSLSLSPGK
In the case of B5, the EC50 in assay [1] came to 2.1 nM.

(Values after patent publication US20140161800A1 (published 2014).)
